According to the supplement of paper PMC10126150:
± gives the standard deviation of the averaged measurements.
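Also: ATP exposure 15 min at 22 °C before imaging.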

The sequences below were run on ATP (assay: switch fluorescence ratio, 500 uM ATP over buffer (Cy3 cluster intensity, sum of 5 cycles each) (fold (ratio)); higher = stronger signal-on switching upon ATP binding; sequences stand for … in TCGTCGGCAGCGTCAGATGTGTATAAGAGACAGTTTTTTTTTTTTTTTTTTTTTTTTT…TC). Conditions: aptamer strand: ATP DNA aptamer (quencher-CACCTGGGGGAGTATTGCGGAGGAAGG + anchor), 100 nM annealed; ATP concentration: 500 uM.
Summary of the method: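 Five buffer/ATP imaging cycles were run on Cy3-labelled switching-strand clusters on a modified Illumina MiSeq flow-cell, with NaOH stripping and re-annealing between cycles. In each cycle, clusters annealed to 100 nM quencher-labelled ATP aptamer were imaged in selection buffer, then after 15 min with 500 uM ATP at 22 °C. Per cluster, the fluorescence ratio is summed target-cycle over summed buffer-cycle Cy3 intensity, averaged per switch-domain sequence. Only clusters within 100-1000 RFU were kept.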
Sequence GGTGGCGTTA has a switch fluorescence ratio of 0.999 ± 0.016. Work on GACGGGGGGA yielded a switch fluorescence ratio of 1.03 ± 0.077. In the case of ACATAGCGAA, the switch fluorescence ratio is reported as 1.13 ± 0.026. In the case of GGTATCACCT, the switch fluorescence ratio is reported as 1.04 ± 0.034. Sequence TTATTTCGGG has a switch fluorescence ratio of 0.973 ± 0.013. GGCTTATAGG gave a switch fluorescence ratio of 1.02 ± 0.036. Work on AAACGTCCT yielded a switch fluorescence ratio of 1.07 ± 0.012. AAGTCAGCTG gave a switch fluorescence ratio of 0.9826 ± 0.004. TGTTGTGTTT was tested, and the switch fluorescence ratio was 0.989 ± 0.033. ACGGTCCAGG gave a switch fluorescence ratio of 3 ± 0.5. TAGGCTAGGC gave a switch fluorescence ratio of 0.971 ± 0.022. CAGATCAGTA showed a switch fluorescence ratio of 0.964 ± 0.015. With ATTATGTTGT the switch fluorescence ratio was 0.981 ± 0.028. AAGCTGTTTC was tested, and the switch fluorescence ratio was 1.009 ± 0.0061. TTTCAGGGAA showed a switch fluorescence ratio of 0.99 ± 0.054. Work on CGAGACAGGA yielded a switch fluorescence ratio of 1.007 ± 0.0017. CAGGGGGGCG was tested, and the switch fluorescence ratio was 1.04 ± 0.088. TGGGGGATCT showed a switch fluorescence ratio of 1 ± 0.038. AAAGGCCCCC gave a switch fluorescence ratio of 1.0047 ± 0.00068. AACGGAACTA gave a switch fluorescence ratio of 1.15 ± 0.019. GTCTAAGGAT showed a switch fluorescence ratio of 0.995 ± 0.042. For CTATTTTATT, the switch fluorescence ratio was 1.01 ± 0.068. For TTTTAGGCCC, the switch fluorescence ratio was 1.09 ± 0.073. With TTCGGGTAAT the switch fluorescence ratio was 1.08 ± 0.11. TTTTTCATAT gave a switch fluorescence ratio of 1.08 ± 0.2. TACGGGTGTG showed a switch fluorescence ratio of 1.016 ± 0.003. TATCGAAGGT was tested, and the switch fluorescence ratio was 0.986 ± 0.017. CAAGATATAT was tested, and the switch fluorescence ratio was 1 ± 0.016. Sequence GCTAGCAATG has a switch fluorescence ratio of 0.982 ± 0.037. AAGGGGGCAG showed a switch fluorescence ratio of 0.994 ± 0.025. Work on AATGGCATGG yielded a switch fluorescence ratio of 1.02 ± 0.016. AAGGGAATAC was tested, and the switch fluorescence ratio was 2.6 ± 0.82. ATATTACTAG gave a switch fluorescence ratio of 0.989 ± 0.035. Sequence GGGGACGTAT has a switch fluorescence ratio of 1.01 ± 0.019. TGGATGTTAT gave a switch fluorescence ratio of 1.02 ± 0.092. Work on TCAAGGGGGA yielded a switch fluorescence ratio of 1 ± 0.035. For CCGTAAGGAA, the switch fluorescence ratio was 1.06 ± 0.11. ACTCTTTGAT gave a switch fluorescence ratio of 1.02 ± 0.0093. With GCGGCGGAAG the switch fluorescence ratio was 1.025 ± 0.0042. Sequence TTTGGTTTGA has a switch fluorescence ratio of 1 ± 0.046. In the case of ATATTATTGA, the switch fluorescence ratio is reported as 0.9818 ± 0.0049. For AGGGAAGCTT, the switch fluorescence ratio was 0.972 ± 0.035. GGTTAGAAAT gave a switch fluorescence ratio of 0.98 ± 0.016. TACTTTGGGA was tested, and the switch fluorescence ratio was 0.98 ± 0.043. In the case of TTCGGGTCGC, the switch fluorescence ratio is reported as 0.963 ± 0.049. Sequence AAATTTCATA has a switch fluorescence ratio of 1.03 ± 0.01. For ATTTTGGGAC, the switch fluorescence ratio was 1.03 ± 0.047. Work on GGTATCTGAT yielded a switch fluorescence ratio of 1.03 ± 0.02. Work on GGTCATGCGG yielded a switch fluorescence ratio of 1.01 ± 0.021. AGTATAGACC showed a switch fluorescence ratio of 0.983 ± 0.01. In the case of GTTTAAAGAC, the switch fluorescence ratio is reported as 0.981 ± 0.02. In the case of TAGGAGTGAG, the switch fluorescence ratio is reported as 0.979 ± 0.026. For CGGGCGGGGG, the switch fluorescence ratio was 1.06 ± 0.12. TGGTGTGGAG showed a switch fluorescence ratio of 1.062 ± 0.006. For GCAGGCGTTG, the switch fluorescence ratio was 0.995 ± 0.013. In the case of GGATAAAATT, the switch fluorescence ratio is reported as 0.996 ± 0.015. With TGTCGGGGAG the switch fluorescence ratio was 1.01 ± 0.018. Work on AAGAAGGGGA yielded a switch fluorescence ratio of 1.22 ± 0.31. For TTCTATGTTA, the switch fluorescence ratio was 0.997 ± 0.014. CTAAGGCCTG showed a switch fluorescence ratio of 0.97 ± 0.072. In the case of GGCATAGAAT, the switch fluorescence ratio is reported as 1.001 ± 0.0012. With CGCAGGCCTC the switch fluorescence ratio was 1.47 ± 0.062. Sequence AAACGAAAAA has a switch fluorescence ratio of 1.04 ± 0.044. CGACAAAAAT gave a switch fluorescence ratio of 1.89 ± 1. Sequence TTGGAGTGCT has a switch fluorescence ratio of 1.04 ± 0.045. With TTTAATGTTT the switch fluorescence ratio was 1 ± 0.017. In the case of GTCATTGGAG, the switch fluorescence ratio is reported as 1.008 ± 0.0079. With ACCAAAGAGA the switch fluorescence ratio was 0.993 ± 0.013. GAGGAGCGGT gave a switch fluorescence ratio of 1 ± 0.017. AGCATGGTAT gave a switch fluorescence ratio of 1 ± 0.04. With CAGAAACGGT the switch fluorescence ratio was 1 ± 0.047. Sequence GAAATCGCCA has a switch fluorescence ratio of 1.022 ± 0.007. In the case of AGGGCTTTTA, the switch fluorescence ratio is reported as 1 ± 0.013. Work on GAGTGCTGTT yielded a switch fluorescence ratio of 1.024 ± 0.01. GGGAGAGAAT gave a switch fluorescence ratio of 1.005 ± 0.0058. For ACGTTTTGTC, the switch fluorescence ratio was 1 ± 0.061. Sequence GCGGGGCTCA has a switch fluorescence ratio of 1.12 ± 0.11. In the case of GGTGTTATAT, the switch fluorescence ratio is reported as 1.02 ± 0.04. CTTGAAGATG showed a switch fluorescence ratio of 0.973 ± 0.065. Sequence ATTGTGGATA has a switch fluorescence ratio of 0.95 ± 0.022. ACCAAACGTG showed a switch fluorescence ratio of 1.23 ± 0.055. In the case of TCGGAGGTGT, the switch fluorescence ratio is reported as 1.01 ± 0.027. GCTGGGCCGA was tested, and the switch fluorescence ratio was 1.01 ± 0.036. For GGCTTTCCTG, the switch fluorescence ratio was 1.1 ± 0.089. In the case of ACCAGGGTGG, the switch fluorescence ratio is reported as 1.03 ± 0.068. For TGTTTAAGGG, the switch fluorescence ratio was 1 ± 0.021. GGCGGGGTAG gave a switch fluorescence ratio of 0.996 ± 0.032. AACTATATGG showed a switch fluorescence ratio of 1.046 ± 0.0081. In the case of TTTGCATTTG, the switch fluorescence ratio is reported as 1.03 ± 0.013. With TCGGGGGTGG the switch fluorescence ratio was 0.988 ± 0.014. For GGGGGTTGAA, the switch fluorescence ratio was 1 ± 0.029. In the case of ATTCACGGCC, the switch fluorescence ratio is reported as 1.06 ± 0.043. Work on TAAGGGTTAC yielded a switch fluorescence ratio of 0.996 ± 0.03. In the case of ATGGTCGATG, the switch fluorescence ratio is reported as 0.965 ± 0.02. CTTAAATTCG was tested, and the switch fluorescence ratio was 0.987 ± 0.018. GGTTGGCTTT was tested, and the switch fluorescence ratio was 1.01 ± 0.069. AGGGCTGCCT showed a switch fluorescence ratio of 1.05 ± 0.096. With AATGCGTGCG the switch fluorescence ratio was 1.04 ± 0.023. AATGGCTGGT was tested, and the switch fluorescence ratio was 0.994 ± 0.017. Sequence ATGTTTAGAA has a switch fluorescence ratio of 0.9607 ± 0.0073. TTTCTAGTGG was tested, and the switch fluorescence ratio was 0.999 ± 0.03. With TGTTTTTAAA the switch fluorescence ratio was 0.979 ± 0.029. Sequence TTATTCAGTC has a switch fluorescence ratio of 0.98 ± 0.046. Sequence CCTAGGGCGG has a switch fluorescence ratio of 1.006 ± 0.0011. In the case of GATATACAGC, the switch fluorescence ratio is reported as 1.02 ± 0.017. In the case of AGCACTGCTG, the switch fluorescence ratio is reported as 1.01 ± 0.014. Sequence TAATGTGTTG has a switch fluorescence ratio of 0.994 ± 0.014. TATGCTAGGT gave a switch fluorescence ratio of 0.983 ± 0.012. For AGGGATACCT, the switch fluorescence ratio was 1.04 ± 0.018. GATTTTGCAT gave a switch fluorescence ratio of 1 ± 0.028. In the case of CATGGATGGC, the switch fluorescence ratio is reported as 1.06 ± 0.03. Work on CTCGGGGGCT yielded a switch fluorescence ratio of 0.98 ± 0.027. Work on CGTGCTAGTC yielded a switch fluorescence ratio of 1.04 ± 0.055. Work on GGATCTGTCG yielded a switch fluorescence ratio of 0.98 ± 0.037. For AAGAGTAGAT, the switch fluorescence ratio was 1.01 ± 0.017. Work on TGGGATGAAG yielded a switch fluorescence ratio of 0.982 ± 0.01. TATATAGGTA showed a switch fluorescence ratio of 1.01 ± 0.043. Work on GGGTAAGTAT yielded a switch fluorescence ratio of 0.958 ± 0.04. In the case of GAGGTGGGGC, the switch fluorescence ratio is reported as 1.05 ± 0.028. For AAAAGCGGAT, the switch fluorescence ratio was 1.025 ± 0.0063. Work on TTACTGTTG yielded a switch fluorescence ratio of 1.05 ± 0.1. GATAGGCAGG was tested, and the switch fluorescence ratio was 0.998 ± 0.019. Work on GGTTGATGTT yielded a switch fluorescence ratio of 0.969 ± 0.059. TGGTGGGTTC showed a switch fluorescence ratio of 1.03 ± 0.067. In the case of GGCCCTGCGA, the switch fluorescence ratio is reported as 1.06 ± 0.056. AGCGGTCAGT showed a switch fluorescence ratio of 0.9776 ± 0.0075. AGTTAATAAT showed a switch fluorescence ratio of 1.01 ± 0.032. ATAATTAAGA was tested, and the switch fluorescence ratio was 0.992 ± 0.014. In the case of CTTATGACAG, the switch fluorescence ratio is reported as 0.988 ± 0.011. Sequence CTCAGTTATG has a switch fluorescence ratio of 1.0176 ± 0.00079. For ATGTAAAGTC, the switch fluorescence ratio was 1.018 ± 0.0031. In the case of AAAGAAAGGG, the switch fluorescence ratio is reported as 1 ± 0.029. In the case of TTTCGATTTT, the switch fluorescence ratio is reported as 0.993 ± 0.04. CTCAATCTTG gave a switch fluorescence ratio of 0.971 ± 0.043. Work on ACGTATTTTC yielded a switch fluorescence ratio of 1.171 ± 0.0024. Work on GGGGTTCCTC yielded a switch fluorescence ratio of 0.9919 ± 0.0096. Work on TGTTTTTAGC yielded a switch fluorescence ratio of 1.0151 ± 0.00055. TCCTTTGGTT showed a switch fluorescence ratio of 0.9865 ± 0.0034. Work on TTTGGCTTAT yielded a switch fluorescence ratio of 0.989 ± 0.022. TAAATATTT showed a switch fluorescence ratio of 0.996 ± 0.025. CGATACGTTG was tested, and the switch fluorescence ratio was 0.99 ± 0.011. Work on AGGGTCACTC yielded a switch fluorescence ratio of 0.9857 ± 0.0043. Work on TTTGCGCGCG yielded a switch fluorescence ratio of 0.992 ± 0.021. GGGACGGTAG gave a switch fluorescence ratio of 1.04 ± 0.034. With TGGCCACTTA the switch fluorescence ratio was 1.073 ± 0.0058. AGGGTATCAG gave a switch fluorescence ratio of 1.01 ± 0.039. Work on TGGGGGGGGG yielded a switch fluorescence ratio of 1.02 ± 0.079. With AGGGATCGGG the switch fluorescence ratio was 1.002 ± 0.01. Sequence GTCTGAACGG has a switch fluorescence ratio of 0.9762 ± 0.0081. For CGTTGGTGGC, the switch fluorescence ratio was 0.9457 ± 0.0066. TATGAATGTG was tested, and the switch fluorescence ratio was 0.991 ± 0.022. Sequence CATGCGCGGA has a switch fluorescence ratio of 1.147 ± 0.0013. For TGGGTGCCGG, the switch fluorescence ratio was 0.929 ± 0.11. GGGGTGAGTG was tested, and the switch fluorescence ratio was 1.02 ± 0.045. For TTTGATGTGC, the switch fluorescence ratio was 1.07 ± 0.064. With TTGGGACGGG the switch fluorescence ratio was 0.994 ± 0.022. For GTCGGGGGTA, the switch fluorescence ratio was 0.992 ± 0.039.
